In experiment [1] the target is T1, EGFR expressed on A431 cells (human, UniProt P00533 25-1210). As to the kind of experiment: cell-based or functional assay.
The target in another experiment is T2, VEGF-165 (human, UniProt P15692-4 27-191).
T2 construct: The assay text gives no species; also called vascular endothelial growth factor
As to the kind of experiment: VEGF receptor binding assay (RBA), IgG-like format; receptor (VEGFR1 or VEGFR2) not given.

Experiment [2] concerns the target T1, EGFR expressed on A431 cells. As to the kind of experiment: EGFR cell receptor binding assay: inhibition of biotinylated EGF binding to A431 cells; IgG-like format.
The target is the same in experiment [3]. As to the kind of experiment: EGFR binding assay: inhibition of biotinylated EGF binding to A431 cells; lowest value obtained.
Method: All reagents were prepared in PBS/1% BSA. The plate was incubated for 30 minutes at room temperature.

T2 sequence (P15692 other isoform, or with tags, fused parts or gaps limits assumed): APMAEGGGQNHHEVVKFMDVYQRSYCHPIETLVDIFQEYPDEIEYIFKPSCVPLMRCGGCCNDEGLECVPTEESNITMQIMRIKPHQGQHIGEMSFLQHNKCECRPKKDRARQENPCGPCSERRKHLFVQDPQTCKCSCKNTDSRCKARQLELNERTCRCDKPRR

B1: DOM16-39 (other)
VL: DIQMTQSPSSLSASVGDRVTITCRASQWIGILLDWYQQKPGEAPKLLIYYASFLQSGVPSRFSGSGSGTDFTLTISSLQPEDFATYYCQQANPAPLTFGQGTKVEIKR
Regarding B1, the “Kinase Assay IC50 (nM), average” value in experiment [1] amounted to 56.1 nM.

B2: IgG-like format No. 28 (heavy chain V region DOM15-26-501 VH; light chain V region DOM16-39-500 VK) (bispecific antibody, V domains shown)
VH: EVQLLESGGGLVQPGGSLRLSCAASGFTFKAYPIMWVRQAPGKGLEWVSEISPSGSYTYYADSVKGRFTISRDNSKNTLYLQMNSLRAEDTAVYYCAKDPRKFDYWGQGTLVTVSS
VL: DIQMTQSPSSLSASVGDRVTITCRASQWIGILVDWYQQKPGKAPKLLIYYASFLQSGVPSRFSGSGFGTDFTLTISSLHPEDFATYYCQQANPAPLTFGQGTKVEIKR
notes: IgG-like format; also called IgG 28; not shown: human IgG1 heavy chain constant region; human kappa light chain constant region (CK)
The IC50 is the concentration that gives 50% inhibition. Low readings indicate greater potency, high ones weaker potency. For orientation: EC50 means the midpoint of the concentration-response curve. B2: the IC50 with VEGF-165 worked out at 0.8 nM. Moreover, the EC50 in experiment [2] came to 43 nM.

B3: DOM16-39-109 (other)
VL: DIQMTQSPTSLSASVGDRVTITCRASQWIGNLLDWYQQKPGEAPKLLIYYASFLQSGVPSRFSGGGFGTDFTLTISSLQPEDFATYYCQQANPAPLTFGQGTKVEIKR
For B3, in experiment [1], the “Kinase Assay IC50 (nM), average” value was 8.69 nM. The molecule further registered an IC50 in experiment [3] of 0.746 to 1.47 nM.

B4: DOM16-39-87 (other)
VL: DIQMTQSPSSLSASVGDRVTITCRASQWIGILVDWYQQKPGEAPKLLIYYASFLQSGVPSRFSGSGSGTDFTLTISSLQPEDFATYYCQQANPAPLRFGQGTKVEIKR
For B4, in experiment [1], the “Kinase Assay IC50 (nM), average” value was determined as 54.9 nM. In experiment [3], this molecule returned an IC50 of 4.47 to 10.4 nM.

B5: DOM16-39-115 (other)
VL: DIQMTQSPSSLSASVGDRVTITCRASQWIGILLDWYQQKPGEAPKLLIYYASFLQSGVPSRFSGSGYGTDFTLTISSLQPEDFATYYCQQANPAPLTFGQGTKVEIKR
Take B5: the “Kinase Assay IC50 (nM), average” value in experiment [1] amounted to 42.4 nM. In experiment [3], this molecule yielded a 50% inhibitory concentration (IC50) of 1.08 to 6.89 nM.

B6: DOM16-39-107 (other)
VL: DIQMTQSPSSLSASVGDRVTITCRASQWIGILVDWYQQKPGEAPKLLIYYASFLQSGVPSRFSGSGSGTDFTLTISSLQPEDFATYYCQQANPAPLTFGQGTKVEIKR
Regarding B6, the “Kinase Assay IC50 (nM), average” value in experiment [1] came to 20.5 nM. This molecule also gave a concentration for half-maximal inhibition (IC50) in experiment [3] of 1.47 to 4.21 nM.

B7: DOM16-39-100 (other)
VL: DIQMTQSPSSLSASVGDRVTITCRASQWIGILVDWYQQKPGEAPKLLIYYASFLQSGVPSRFSGSGFGTDFTLTISSLHPEDFATYYCQQANPAPLTFGQGTKVEIKR
For B7, in experiment [1], the “Kinase Assay IC50 (nM), average” value is 12.7 nM; the “Kinase Assay IC50 (nM), highest value” came to 17.6 nM; the “Kinase Assay IC50 (nM), lowest value” is 9.14 nM. The molecule also yielded a 50% inhibitory concentration (IC50) in experiment [3] of 1.01 to 2.76 nM.

B8: IgG-like format No. 30 (heavy chain V region DOM15-26-501 VH; light chain V region DOM16-39-502 VK) (bispecific antibody, V domains shown)
VH: EVQLLESGGGLVQPGGSLRLSCAASGFTFKAYPIMWVRQAPGKGLEWVSEISPSGSYTYYADSVKGRFTISRDNSKNTLYLQMNSLRAEDTAVYYCAKDPRKFDYWGQGTLVTVSS
VL: DIQMTQSPTSLSASVGDRVTITCRASQWIGNLLDWYQQKPGKAPKLLIYYASFLQSGVPSRFSGGGFGTDFTLTISSLQPEDFATYYCQQANPAPLTFGQGTKVEIKR
notes: IgG-like format; also called IgG 30; not shown: human IgG1 heavy chain constant region; human kappa light chain constant region (CK)
In the case of B8, the IC50 in the experiment with VEGF-165 was 0.2 nM. A half-maximal response in experiment [2] (EC50) required 17 nM.

(Values after patent publication US20100056439A1 (DOMANTIS, published 2010).)
